Laboratory results from patent publication US20210054088A1 (Eli Lilly, published 2021).
Like-named read-outs stand apart in the source and are kept apart here.

T1: FcγRIIa(H) (UniProt P12318 36-218, limits assumed)
T1 sequence (looked up): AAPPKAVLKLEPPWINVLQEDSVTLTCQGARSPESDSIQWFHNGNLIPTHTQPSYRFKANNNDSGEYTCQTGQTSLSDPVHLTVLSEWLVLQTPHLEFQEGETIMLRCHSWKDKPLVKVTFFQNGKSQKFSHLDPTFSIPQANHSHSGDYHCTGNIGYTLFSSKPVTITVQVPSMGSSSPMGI

T2: FcγRIIb (UniProt P31994 43-217, limits assumed)
T2 sequence (looked up): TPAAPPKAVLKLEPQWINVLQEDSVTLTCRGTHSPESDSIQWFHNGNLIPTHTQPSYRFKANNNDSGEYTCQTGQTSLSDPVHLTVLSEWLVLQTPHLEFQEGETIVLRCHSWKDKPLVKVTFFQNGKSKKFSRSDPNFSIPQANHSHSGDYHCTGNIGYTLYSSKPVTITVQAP

T3: hCD137** ((human CD137 amino acids 22-164, ΔC121S)-AAA-FLAG) (human, UniProt Q07011 22-164)
T3 construct: not shown: FLAG tag
T3 chain: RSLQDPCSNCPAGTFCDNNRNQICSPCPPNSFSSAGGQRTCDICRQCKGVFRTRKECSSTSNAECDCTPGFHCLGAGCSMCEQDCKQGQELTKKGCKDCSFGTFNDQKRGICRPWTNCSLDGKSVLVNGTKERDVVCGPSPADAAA

B1: Antibody A2 (antibody, human IgG1, kappa)
heavy: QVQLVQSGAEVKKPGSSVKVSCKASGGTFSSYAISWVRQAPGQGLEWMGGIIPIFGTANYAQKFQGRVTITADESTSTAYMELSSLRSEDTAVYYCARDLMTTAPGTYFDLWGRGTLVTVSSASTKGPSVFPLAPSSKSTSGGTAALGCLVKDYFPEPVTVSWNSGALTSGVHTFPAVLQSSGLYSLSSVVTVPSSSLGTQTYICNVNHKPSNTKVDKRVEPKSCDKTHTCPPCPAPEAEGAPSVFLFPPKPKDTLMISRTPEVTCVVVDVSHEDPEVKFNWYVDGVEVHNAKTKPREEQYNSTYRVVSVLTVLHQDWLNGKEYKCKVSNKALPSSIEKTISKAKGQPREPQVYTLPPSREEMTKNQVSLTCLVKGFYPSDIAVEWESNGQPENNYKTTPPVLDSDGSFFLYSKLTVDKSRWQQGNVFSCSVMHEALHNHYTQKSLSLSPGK
light: IRMTQSPPSLSASVGDRVTITCQASQDIGNSLGWYQQKPGKAPKLVIFDASDLETGVPSRFSGSGSGTDFSLTISSLQPEDFATYYCQQGNSFPLTFGQGTRLEIKRTVAAPSVFIFPPSDEQLKSGTASVVCLLNNFYPREAKVQWKVDNALQSGNSQESVTEQDSKDSTYSLSSTLTLSKADYEKHKVYACEVTHQGLSSPVTKSFNRGEC
notes: Form lacking the N-terminal alanine of the light chain; IgG1 Fc-null, kappa
B2: Antibody A1/2 (antibody, human IgG1, kappa)
heavy: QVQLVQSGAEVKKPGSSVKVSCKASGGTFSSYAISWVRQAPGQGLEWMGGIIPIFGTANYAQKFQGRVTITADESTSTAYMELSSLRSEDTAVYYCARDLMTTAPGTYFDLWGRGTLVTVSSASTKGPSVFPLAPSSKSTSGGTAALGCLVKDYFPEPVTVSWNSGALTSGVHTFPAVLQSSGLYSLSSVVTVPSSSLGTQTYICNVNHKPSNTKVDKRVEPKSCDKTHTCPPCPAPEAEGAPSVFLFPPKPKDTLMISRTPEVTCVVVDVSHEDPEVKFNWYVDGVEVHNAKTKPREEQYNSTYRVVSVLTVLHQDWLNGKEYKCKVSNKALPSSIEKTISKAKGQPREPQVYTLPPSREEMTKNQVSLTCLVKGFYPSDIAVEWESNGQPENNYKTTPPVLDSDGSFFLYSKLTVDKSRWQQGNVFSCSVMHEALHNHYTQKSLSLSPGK
light: B1 light
notes: Human IgG1 Fc-null, kappa; also called Antibody 1/2
B3: Antibody A1 (antibody, human IgG1, kappa)
heavy: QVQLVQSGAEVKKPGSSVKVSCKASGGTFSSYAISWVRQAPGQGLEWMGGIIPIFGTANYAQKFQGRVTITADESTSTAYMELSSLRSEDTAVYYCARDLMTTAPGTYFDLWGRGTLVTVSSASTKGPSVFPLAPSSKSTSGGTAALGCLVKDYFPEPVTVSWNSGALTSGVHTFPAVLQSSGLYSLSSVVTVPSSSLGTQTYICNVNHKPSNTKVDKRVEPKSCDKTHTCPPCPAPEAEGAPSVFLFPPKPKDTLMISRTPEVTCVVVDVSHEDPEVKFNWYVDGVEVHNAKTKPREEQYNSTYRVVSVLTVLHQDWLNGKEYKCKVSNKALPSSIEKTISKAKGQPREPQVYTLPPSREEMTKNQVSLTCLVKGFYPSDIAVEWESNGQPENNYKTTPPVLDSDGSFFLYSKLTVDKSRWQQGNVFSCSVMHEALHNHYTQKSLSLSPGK
light: AIRMTQSPPSLSASVGDRVTITCQASQDIGNSLGWYQQKPGKAPKLVIFDASDLETGVPSRFSGSGSGTDFSLTISSLQPEDFATYYCQQGNSFPLTFGQGTRLEIKRTVAAPSVFIFPPSDEQLKSGTASVVCLLNNFYPREAKVQWKVDNALQSGNSQESVTEQDSKDSTYSLSSTLTLSKADYEKHKVYACEVTHQGLSSPVTKSFNRGEC
notes: Full length form; IgG1 Fc-null, kappa
B4: PF83 (antibody, V domains shown)
VH: EVQLVQSGAEVKKPGESLRISCKGSGYSFSTYWISWVRQMPGKGLEWMGKIYPGDSYTNYSPSFQGQVTISADKSISTAYLQWSSLKASDTAMYYCARGYGIFDYWGQGTLVTVSS
VL: SYELTQPPSVSVSPGQTASITCSGDNIGDQYAHWYQQKPGQSPVLVIYQDKNRPSGIPERFSGSNSGNTATLTISGTQAMDEADYYCATYTGFGSLAVFGGGTKLTVLG
notes: Comparator anti-CD137 antibody, previously described in U.S. Pat. No. 8,337,850
B5: BMS20H4.9 (antibody, human IgG4 S228P, kappa, V domains shown)
VH: QVQLQQWGAGLLKPSETLSLTCAVYGGSFSGYYWSWIRQSPEKGLEWIGEINHGGYVTYNPSLESRVTISVDTSKNQFSLKLSSVTAADTAVYYCARDYGPGNYDWYFDLWGRGTLVTVSS
VL: EIVLTQSPATLSLSPGERATLSCRASQSVSSYLAWYQQKPGQAPRLLIYDASNRATGIPARFSGSGSGTDFTLTISSLEPEDFAVYYCQQRSNWPPALTFGGGTKVEIKR
notes: Comparator anti-CD137 antibody, previously described in U.S. Pat. No. 7,288,638

Tests used:
[1] = target: human CD137 on stably transfected human 293 cells (human, UniProt Q07011 24-255); test: cell-based or functional assay
Chain of human CD137 on stably transfected human 293 cells (Q07011 24-255 limits assumed): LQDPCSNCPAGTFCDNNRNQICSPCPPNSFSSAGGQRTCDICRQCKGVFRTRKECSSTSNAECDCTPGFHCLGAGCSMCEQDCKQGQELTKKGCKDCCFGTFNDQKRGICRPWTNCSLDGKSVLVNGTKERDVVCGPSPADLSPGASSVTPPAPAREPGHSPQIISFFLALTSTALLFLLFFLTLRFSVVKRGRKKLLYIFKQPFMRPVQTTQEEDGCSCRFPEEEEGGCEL

[2] = target: T4, Recombinant human extracellular CD137-Fc protein (R&D Systems) (human, UniProt Q07011 24-186); test: SPR (Biacore T200), CD137-Fc immobilised, 25° C., 1:1 Langmuir fit
T4 construct: Bought protein; also called human CD137-Fc; not shown: Fc part of the bought fusion protein

[3] = target: T5, human CD137-ECD-C121S-Fc mutant R134Q (human, UniProt Q07011 24-186); test: point ELISA, coated CD137-Fc mutant; mean of absorbance normalised to wild type over eight concentrations
T5 construct: not shown: Fc part
T5 sequence (Q07011 24-186 C121S/R134Q): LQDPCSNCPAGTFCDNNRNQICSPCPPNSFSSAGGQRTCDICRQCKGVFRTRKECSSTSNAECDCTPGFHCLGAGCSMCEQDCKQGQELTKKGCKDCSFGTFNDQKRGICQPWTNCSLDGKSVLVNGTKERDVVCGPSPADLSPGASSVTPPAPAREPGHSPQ

[4] = target: T6, human CD137-ECD-C121S-Fc mutant I132V (human, UniProt Q07011 24-186); test: as above
T6 construct: not shown: Fc part
T6 sequence (Q07011 24-186 C121S/I132V): as the sequence (Q07011 24-186 C121S/R134Q) above, with I109V, Q111R counted along it

[5] = target: T7, human CD137-ECD-C121S-Fc mutant R130A (human, UniProt Q07011 24-186); test: as above
T7 construct: not shown: Fc part
T7 sequence (Q07011 24-186 C121S/R130A): as the sequence (Q07011 24-186 C121S/R134Q) above, with R107A, Q111R counted along it

[6] = target: T8, human CD137-ECD-C121S-Fc mutant R130H (human, UniProt Q07011 24-186); test: as above
T8 construct: not shown: Fc part
T8 sequence (Q07011 24-186 C121S/R130H): as the sequence (Q07011 24-186 C121S/R134Q) above, with R107H, Q111R counted along it

[7] = target: T9, human CD137-ECD-C121S-Fc mutant K115Q (human, UniProt Q07011 24-186); test: as above
T9 construct: not shown: Fc part
T9 sequence (Q07011 24-186 K115Q/C121S): as the sequence (Q07011 24-186 C121S/R134Q) above, with K92Q, Q111R counted along it

[8] = target: T10, cynomolgus monkey CD137 on stably transfected human 293 cells (cynomolgus monkey, UniProt A9YYE7 24-254); test: flow cytometry on 293 cells expressing cynomolgus monkey CD137, antibody at 0.5 micrograms/mL; MFI of antibody / MFI of control IgG
T10 construct: whole, on cells; also called Cyno-CD137
T10 sequence (A9YYE7 entry or part of it): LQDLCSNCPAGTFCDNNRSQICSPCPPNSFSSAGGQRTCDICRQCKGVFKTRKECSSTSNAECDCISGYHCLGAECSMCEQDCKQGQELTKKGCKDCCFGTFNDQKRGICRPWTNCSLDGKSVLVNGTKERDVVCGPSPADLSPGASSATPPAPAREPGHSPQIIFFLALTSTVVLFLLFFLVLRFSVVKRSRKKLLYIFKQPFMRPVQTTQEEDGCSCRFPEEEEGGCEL
Text: The ability of the antibodies disclosed herein to bind to cell surface cynomolgus monkey CD137 can be measured using a flow cytometric assay. Cynomolgus monkey CD137 expressing stable cells are generated by transfecting Cyno-CD137 receptor plasmid DNA into human 293 cells (ATCC) using Lipofectamine™ 2000 reagent (Invitrogen™) per manufacturer's protocol. Stable cells are selected using 0.5 micrograms/mL puromycin in Dulbecoo's Modified Eagle's Medium containing 10% fetal bovine serum and 1% GlutaMAX™. For flow cytometry, confluent adherent cells are detached using Gibco® Cell Dissociation Buffer (Life Technologies), blocked in FACS buffer (phosphate buffered saline containing 3% fetal bovine serum) for 1 h at 4° C., and then transferred into a 96-well round-bottom plate at a density of 1×10⁵ cells/well.
After washing in FACS buffer, secondary antibody R-phycoerythrin conjugated goat anti-human IgG, F(ab′)₂ fragment specific antibody (Jackson ImmunoResearch Laboratories) is added at a 1:200 dilution and cells are incubated at 4° C. for 30 minutes. Cells are washed and live/dead cell staining is performed using LIVE/DEAD® Fixable Far Red Dead Cell Stain kit (Life Technologies) per manufacturer's protocol. […] Flow cytometry data is analyzed using FlowJo® Software. Mean fluorescence intensity (MFI) ratio is calculated as the (MFI of Experimental antibody)/(MFI of the control IgG).

[9] = target: T1, FcγRIIa(H); test: MSD assay, Fcγ receptor coated
Experimental: (§1) Briefly, Fcγ receptors are coated onto a Meso Scale plate overnight and serially diluted test antibodies are added to the plate and incubated for 2 h. […] Luminescence is measured on a SECTOR Imager 2400 (Meso Scale Diagnostics) and data is analyzed using GraphPad Prism 7.0 software.

[10] = target: FcγRIIIa(F) (UniProt P08637 17-208, limits assumed); test: MSD assay, Fcγ receptor coated
Chain of FcγRIIIa(F) (P08637 17-208 limits assumed): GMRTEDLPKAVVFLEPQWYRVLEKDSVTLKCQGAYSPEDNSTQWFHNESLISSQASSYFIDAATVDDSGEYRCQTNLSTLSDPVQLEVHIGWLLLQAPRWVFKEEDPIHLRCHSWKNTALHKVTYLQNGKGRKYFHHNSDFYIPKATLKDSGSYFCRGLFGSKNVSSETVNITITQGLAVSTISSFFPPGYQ
Experimental: as §1

[11] = target: FcγRIIIa(V) (UniProt P08637 17-208, limits assumed); test: MSD assay, Fcγ receptor coated
Chain of FcγRIIIa(V) (P08637 17-208 F176V limits assumed): as the sequence (P08637 17-208 limits assumed) above, with F160V counted along it
Experimental: as §1

[12] = target: T2, FcγRIIb; test: MSD assay, Fcγ receptor coated
Experimental: as §1

[13] = target: FcγRI (UniProt P12314 16-288, limits assumed); test: MSD assay, Fcγ receptor coated
Chain of FcγRI (P12314 16-288 limits assumed): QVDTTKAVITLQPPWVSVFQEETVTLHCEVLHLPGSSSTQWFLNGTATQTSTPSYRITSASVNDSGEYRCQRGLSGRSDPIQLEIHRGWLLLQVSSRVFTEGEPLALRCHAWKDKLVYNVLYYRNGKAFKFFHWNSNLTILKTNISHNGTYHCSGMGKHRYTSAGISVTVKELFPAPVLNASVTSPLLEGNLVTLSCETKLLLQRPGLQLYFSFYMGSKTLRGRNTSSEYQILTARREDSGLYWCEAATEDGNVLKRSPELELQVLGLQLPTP
Experimental: as §1

[14] = target: T4, Recombinant human extracellular …; test: ELISA, coated human CD137-Fc
Experimental: The ability of the antibodies disclosed herein to bind human CD137 can be measured by ELISA. […] Wells are blocked for 2 h with blocking buffer (PBS containing 0.2% bovine serum albumin and 0.05% Tween-20). Wells are washed three times with PBS containing 0.05% Tween-20. […] After washing, the plate is incubated with 100 microliters of goat anti-human IgG F(ab′)2-HRP conjugate (Jackson Immuno Research Laboratories) at room temperature for 45 minutes. The plates are washed and then incubated with 100 microliters of 3,3′, 5,5′-tetra-methylbenzidine. The absorbance at 650 nm is read on a SpectraMax® microplate reader. The half maximal effective concentration (EC₅₀) is calculated using GraphPad Prism 7 software.

[15] = target: Human C1q (human, UniProt P02745 23-245; P02746 28-253; P02747 29-245); test: ELISA, antibody coated, human C1q added
Chain of Human C1q (P02745 23-245 limits assumed, chain 1 of 3): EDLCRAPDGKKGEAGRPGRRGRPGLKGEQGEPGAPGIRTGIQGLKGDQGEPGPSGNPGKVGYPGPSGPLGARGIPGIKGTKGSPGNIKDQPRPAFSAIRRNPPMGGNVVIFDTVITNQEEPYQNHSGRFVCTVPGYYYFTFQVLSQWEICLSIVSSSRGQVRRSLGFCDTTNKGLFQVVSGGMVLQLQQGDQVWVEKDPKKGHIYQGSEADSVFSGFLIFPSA
Chain of Human C1q (P02746 28-253 limits assumed, chain 2 of 3): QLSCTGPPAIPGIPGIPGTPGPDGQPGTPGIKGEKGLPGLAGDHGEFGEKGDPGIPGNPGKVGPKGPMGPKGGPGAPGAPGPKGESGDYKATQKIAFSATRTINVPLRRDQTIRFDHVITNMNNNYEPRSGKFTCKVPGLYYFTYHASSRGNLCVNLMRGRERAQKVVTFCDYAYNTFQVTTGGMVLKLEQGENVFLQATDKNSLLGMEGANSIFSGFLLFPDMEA
Chain of Human C1q (P02747 29-245 limits assumed, chain 3 of 3): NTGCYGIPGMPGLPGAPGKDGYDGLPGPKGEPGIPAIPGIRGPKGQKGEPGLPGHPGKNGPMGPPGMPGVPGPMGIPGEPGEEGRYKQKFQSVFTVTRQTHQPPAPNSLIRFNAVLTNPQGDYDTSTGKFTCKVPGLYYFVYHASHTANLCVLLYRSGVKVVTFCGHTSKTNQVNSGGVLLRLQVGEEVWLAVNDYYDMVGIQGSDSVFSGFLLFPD
Experimental: Human C1q in casein buffer is added at a concentration of 10 milligrams/mL and incubated for 2 hrs. Human C1q is detected by incubating the plates with anti-human C1q-HRP (AbD Serotec Inc., 1:200 dilution) for 1 h and the plate is developed using TMB (KPL, Inc.). Absorbance is measured at 450 nm with Synergy Neo2 hybrid multi-mode reader (BioTek®).

[16] = target: T3, hCD137** (human CD137 amino acids …); test: ELISA, coated hCD137**, anti-Fab detection
Experimental: The wells of a 96 well Immulon® 4HBX ELISA plate are coated overnight with 50 nanograms of hCD137** in 100 microliters of PBS, pH 7.2 with mild agitation at 4° C. […] The wells treated with the anti-CD137 antibodies are then washed and a 1:10000 dilution of HRP-conjugated goat anti-Fab antibody (Jackson ImmunoResearch Laboratories) is added and incubated at room temperature following standard protocol. The wells treated with hCD137L* are then washed and a 1:5000 dilution of HRP-conjugated mouse anti-His antibody (Sigma-Aldrich®) is added and the plates are incubated at room temperature following standard protocol. TMB peroxidase chromogenic substrate and stop solution are used according to manufacturer's instruction for visualization and detection of signals. Absorbance readings are plotted in GraphPad Prism Software Version 6. EC₅₀ values are calculated by nonlinear regression curve fit analysis of the software's One Site-Specific Binding function.

[17] = target: T11, human CD137-ECD-C121S-Fc mutant K114E (human, UniProt Q07011 24-186); test: point ELISA, coated CD137-Fc mutant; mean of absorbance normalised to wild type over eight concentrations;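 also: antibody binding to plate-adsorbed CD137-Fc variants, detected with an HRP-labelled anti-Fab secondary antibody and TMB colour development read as absorbance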
T11 construct: not shown: Fc part
T11 sequence (Q07011 24-186 K114E/C121S): as the sequence (Q07011 24-186 C121S/R134Q) above, with K91E, Q111R counted along it

[18] = target: T12, human CD137-ECD-C121S-Fc mutant D63N (human, UniProt Q07011 24-186); test: as above
T12 construct: not shown: Fc part
T12 sequence (Q07011 24-186 D63N/C121S): as the sequence (Q07011 24-186 C121S/R134Q) above, with D40N, Q111R counted along it

[19] = target: T13, human CD137-ECD-C121S-Fc mutant G98Q (human, UniProt Q07011 24-186); test: as above
T13 construct: not shown: Fc part
T13 sequence (Q07011 24-186 G98Q/C121S): as the sequence (Q07011 24-186 C121S/R134Q) above, with G75Q, Q111R counted along it

[20] = target: T14, human CD137-ECD-C121S-Fc mutant P27L (human, UniProt Q07011 24-186); test: as above
T14 construct: not shown: Fc part
T14 sequence (Q07011 24-186 P27L/C121S): as the sequence (Q07011 24-186 C121S/R134Q) above, with P4L, Q111R counted along it

[21] = target: T15, human CD137-ECD-C121S-Fc mutant S100T (human, UniProt Q07011 24-186); test: as above
T15 construct: not shown: Fc part
T15 sequence (Q07011 24-186 S100T/C121S): as the sequence (Q07011 24-186 C121S/R134Q) above, with S77T, Q111R counted along it

[22] = target: T16, human CD137-ECD-C121S-Fc mutant M101R (human, UniProt Q07011 24-186); test: as above
T16 construct: not shown: Fc part
T16 sequence (Q07011 24-186 M101R/C121S): as the sequence (Q07011 24-186 C121S/R134Q) above, with M78R, Q111R counted along it

[23] = target: T17, human CD137-ECD-C121S-Fc mutant A97P (human, UniProt Q07011 24-186); test: as above
T17 construct: not shown: Fc part
T17 sequence (Q07011 24-186 A97P/C121S): as the sequence (Q07011 24-186 C121S/R134Q) above, with A74P, Q111R counted along it

[24] = target: T18, human CD137-ECD-C121S-Fc mutant Q67V (human, UniProt Q07011 24-186); test: as above
T18 construct: not shown: Fc part
T18 sequence (Q07011 24-186 Q67V/C121S): as the sequence (Q07011 24-186 C121S/R134Q) above, with Q44V, Q111R counted along it

[25] = target: T19, human CD137-ECD-C121S-Fc mutant N42S (human, UniProt Q07011 24-186); test: as above
T19 construct: not shown: Fc part
T19 sequence (Q07011 24-186 N42S/C121S): as the sequence (Q07011 24-186 C121S/R134Q) above, with N19S, Q111R counted along it

[26] = target: T20, human CD137-ECD-C121S-Fc mutant G98K (human, UniProt Q07011 24-186); test: as above
T20 construct: not shown: Fc part
T20 sequence (Q07011 24-186 G98K/C121S): as the sequence (Q07011 24-186 C121S/R134Q) above, with G75K, Q111R counted along it

[27] = target: T21, human CD137-ECD-C121S-Fc mutant Q104K (human, UniProt Q07011 24-186); test: as above
T21 construct: not shown: Fc part
T21 sequence (Q07011 24-186 Q104K/C121S): as the sequence (Q07011 24-186 C121S/R134Q) above, with Q81K, Q111R counted along it

[28] = target: T22, human CD137-ECD-C121S-Fc mutant Q67R (human, UniProt Q07011 24-186); test: as above
T22 construct: not shown: Fc part
T22 sequence (Q07011 24-186 Q67R/C121S): as the sequence (Q07011 24-186 C121S/R134Q) above, with Q44R, Q111R counted along it

[29] = target: T9, human CD137-ECD-C121S-Fc mutant K115Q; test: as above; remark: listed apart in the source
Experimental: (§2) To determine the impact of a mutation on the binding of the antibodies, a point ELISA assay against CD137-Fc wild type and mutants is utilized. The wells of a 96-well Immulon 4HBX ELISA plate are coated overnight with 50 nanograms of human CD137-ECD-C121S-Fc or its mutants in 100 microliters of PBS, pH 7.2 with mild agitation at 4° C. […] The wells are washed and a HRP-conjugated secondary antibody (1:10000 dilution of HRP-conjugated goat anti-Fab antibody (Jackson ImmunoResearch Laboratories) is added and incubated at room temperature following standard protocol. TMB peroxidase chromogenic substrate and stop solution are used according to manufacturer's instruction for visualization and detection of signals. Absorbance readings for each concentration point is normalized by the absorbance of the wild-type interaction. For each mutant, the mean of the normalized ratio for the eight concentrations is determined.

[30] = target: T19, human CD137-ECD-C121S-Fc mutant N42S; test: point ELISA on coated CD137-Fc mutant; % of binding relative to wild-type hCD137
Experimental: as §2

Row | Binder | max activity, NF-kappaB luciferase reporter [1] [%] | Kd [2] [nM] | koff [2] [s⁻¹] | kon [2] [M⁻¹ s⁻¹] | MFI ratio [8] | EC50 [16] [nM] | % of binding relative to wild-type hCD137 [17] [%] | % of binding relative to wild-type hCD137 [18] [%] | % of binding relative to wild-type hCD137 [19] [%] | % of binding relative to wild-type hCD137 [20] [%] | % of binding relative to wild-type hCD137 [21] [%] | % of binding relative to wild-type hCD137 [22] [%] | % of binding relative to wild-type hCD137 [23] [%] | % of binding relative to wild-type hCD137 [24] [%] | % of binding relative to wild-type hCD137 [26] [%] | % of binding relative to wild-type hCD137 [27] [%] | % of binding relative to wild-type hCD137 [28] [%] | % of binding relative to wild-type hCD137 [29] [%] | also measured
1 | B1 | 72.3 | 5.36 | 0.00713 | 1.33e+06 | – | – | – | – | – | – | – | – | – | – | – | – | – | – | –
2 | B2 | – | 4.67 | 0.00711 | 1.52e+06 | 153 | 1.4 | 20 | 100 | 100 | 100 | 100 | 100 | 15 | 100 | 85 | 100 | 100 | 25 | % of binding relative to wild-type hCD137 [3]: 100%; % of binding relative to wild-type hCD137 [4]: 100%; % of binding relative to wild-type hCD137 [5]: 100%; % of binding relative to wild-type hCD137 [6]: 100%; % of binding relative to wild-type hCD137 [7]: 25%; EC50 [9]: > 134 nM; EC50 [10]: > 134 nM; EC50 [11]: > 134 nM; EC50 [12]: > 134 nM; EC50 [13]: > 5 nM; EC50 [14]: 0.027 nM; EC50 [15]: > 330 nM; % of binding relative to wild-type hCD137 [25]: 100%
3 | B3 | 63.4 | 3.33 | 0.00536 | 1.61e+06 | – | – | – | – | – | – | – | – | – | – | – | – | – | – | –
4 | B4 | – | – | – | – | 37 | – | – | – | – | – | – | – | – | – | – | – | – | – | –
5 | B5 | 115 | – | – | – | – | 0.43 | 100 | 100 | 100 | 85 | 100 | 100 | 100 | 100 | 100 | 100 | 100 | 100 | binding result [30]: no binding
